This is an account of results in the DeepSol protein solubility set.

This series is described as follows: soluble on expression in E. coli; label from the status in PepcDB or PDB records.
As to “MSLKIIVVGCGKIGYTIAKVLSEKKDIDVTVVDNNPNIFDKMVEPIDVIFISGNGANEKTLIEAGAKDADLIVSTTNADELNVLCCIMAERLGTKHSIARVRNPEYMLEFNKLWKDLGIDMVINPERQTAREISRILRYHAADDIVTFIGDRVELVSFKVSETPEYFVGKSVSQIFDNNMGILLAIVERENQALIPNGDLIFKESDIIWIMGRPSQIMKFFTLIKKGPKKGQEIMVIGGGKITHYLVELLNRHTTKANIKIIKKDRSKCESLYEALSSASLERRCLFIHGDGTNEELLIDEGIDTMDACVCLTDRDEENVFISLYAMRRGVKKVITKINYIHQNMAKSLGLWLGNIITPQYITAKTVIRYVDGLSGAVGRNIMTIHQIYSGDDGNVDAIEFQVNKKAKCIDTPIKKLKLKKGILIGCISRDFDIIIPSGETEIHIGDRVIIFSKNNDIRDLDDILENEGHHHHHH”, the “soluble on expression in E. coli” value was “soluble”.
With “MDASTHFRDRGALITGLMSGALDAVDAVARTRPAVEVLGLLVPVDGLMEDYLNGRAREGLGVTRSEFEPWRRQLLAVVAALLERWVGDDADLWRALAMRAGSYCGTVVELVDSVVRPEHADPASWAGRAPRWPRGVDASAVLLALAPPGIAEAFLDDCVTNAAAAGVLTRMLDRGPLHPLFVEYALGSLGTEAMRASLNRNPAYAIAQLRDQVLRERTDIAVLEHAYFAPPTDRALRVGLVRLAEAVGGFRPRFISRLESHAEDIASLEPLLVCSDPQLVHWVLRRVNATLKVPAMRWAAYATLALTAGPEPVWALEQERVGTLSRMAEPVRASMSTGSVAPILAAAGAAPVTIGPAGSAIELGAPLIEPWPYTELICEHVEGDGHRADPVDKPAADRPSSTRLGRSAEV” the entry was “not soluble”.
With “MKFRSTALVKGFRQSAPYVNAHRDKTVVIMLGGEAIADPNFANIVNDIALLNSLGLRIVIVYGTRPQMRSLLKQTEHHAPFHKGIRITDEQTLELVKQIAGQLQLDITARLSMSLNNTPMAGAQINVISGNFVIAQPLGVDDGIDYCHSGRVRRIDTQGINRMLDQQSIVLLGPVASSVTGECFNLLSEDVATQLAIRLNADKLIGFCSEQGVLNEKGQILAELFPSEAEEILQRLEKELTPENGKLTGTMRFLKGAISACKAGVPRSHLISYKEDGALIQELFSFDGIGTQVVMASSEQVRDAEIDDIGGILDLIRPLEEEGILVRRSREQLEQEIAQFTIIEKDGLVIACAALYPFPEEGMAEMGCVAVHPDYRDGDRGVTLLNRLRSKAKQFKLSQLFVLTTRSLHWFREQGFIEVDVSHLPIKKQKLYNFQRKSKILVLKGL” the entry was “not soluble”.
“MDILLMDTIQQEVLALFREEIPGYLDSNWKEIPLELDSDLFEAPGDDLHEALDKFEKKFNVDLSQVKWSCYFPWENTPLLTRWFKLKREDVERTRKPLTIRMFSESAKAGKWLYD”: the “soluble on expression in E. coli” value is given as “not soluble”.
As to “AHHHHHHGSRMRQEERKFVELVERIMERWGYDRTGGKIYGILLLSNKPLTISELSKITGLSRSSVSVALSKLTREYLVTYTKEKKTKYFYAVPAFLEKFLKQPKEILEREIKPLKEIVVKLAEKSNEEEKARFEAILSDLLTLECVLKKIIELEEKESECLKK”, the “soluble on expression in E. coli” value was “not soluble”.
Turning to “MKTARLLSSGALALSLLAGSVTAAVSPDEAAKLGSSLTPIGAQKEGNADGSIPAWTGGLAASAGKVDGKGFLSDPFADEKPLFTITAQNVEQYKDKLSDGQLAMFKRYPETYRIPVYKTHRTVALPAEIDEAVKQSALNVQPINDGNGLSNFEKSRYYAFPIPKNGVEVLWNHITRYRGGNLKRTIVQATPQTNGSFTPIRFEESVAFPQNMPDLDQSKAANILTFFKQQVTAPARLAGNVLLVHETLDQVKEPRLAWVYNAGQRRVRRAPQVAYDGPGTAADGLRTSDNFDMFSGAPDRYDWKLVGKREMYIPYNAYKLNDPTLKYSDIIKAGHINQDLTRYELHRVWEVVGTVKPGERHIYAKRHMYIDEDSWQIALVDHYDGRGQLWRVGEGHAQYHYDQKVAGYTLEALYDVIAGRYLALGMNNEEKRGYEFGFKASSADYTPAALRNAGVR”, the “soluble on expression in E. coli” value is “not soluble”.
As for “MAHHHHHHMGGRTAFEDVCANEAKAWSICLETNLGGKDVRKKCGEQQQTFDTCVSAWRTKVGNAVQVKGENEGDPPFQCASMACHIGECLRKYNYDFDRCEPHTQFFKYCVKSFYGQDYIS”, the “soluble on expression in E. coli” value was “not soluble”.
